Read-outs that look alike come from different tables or passages of the source.
T1: hLon (human Lon protease) (Homo sapiens, UniProt P36776 68-959)
T1 sequence: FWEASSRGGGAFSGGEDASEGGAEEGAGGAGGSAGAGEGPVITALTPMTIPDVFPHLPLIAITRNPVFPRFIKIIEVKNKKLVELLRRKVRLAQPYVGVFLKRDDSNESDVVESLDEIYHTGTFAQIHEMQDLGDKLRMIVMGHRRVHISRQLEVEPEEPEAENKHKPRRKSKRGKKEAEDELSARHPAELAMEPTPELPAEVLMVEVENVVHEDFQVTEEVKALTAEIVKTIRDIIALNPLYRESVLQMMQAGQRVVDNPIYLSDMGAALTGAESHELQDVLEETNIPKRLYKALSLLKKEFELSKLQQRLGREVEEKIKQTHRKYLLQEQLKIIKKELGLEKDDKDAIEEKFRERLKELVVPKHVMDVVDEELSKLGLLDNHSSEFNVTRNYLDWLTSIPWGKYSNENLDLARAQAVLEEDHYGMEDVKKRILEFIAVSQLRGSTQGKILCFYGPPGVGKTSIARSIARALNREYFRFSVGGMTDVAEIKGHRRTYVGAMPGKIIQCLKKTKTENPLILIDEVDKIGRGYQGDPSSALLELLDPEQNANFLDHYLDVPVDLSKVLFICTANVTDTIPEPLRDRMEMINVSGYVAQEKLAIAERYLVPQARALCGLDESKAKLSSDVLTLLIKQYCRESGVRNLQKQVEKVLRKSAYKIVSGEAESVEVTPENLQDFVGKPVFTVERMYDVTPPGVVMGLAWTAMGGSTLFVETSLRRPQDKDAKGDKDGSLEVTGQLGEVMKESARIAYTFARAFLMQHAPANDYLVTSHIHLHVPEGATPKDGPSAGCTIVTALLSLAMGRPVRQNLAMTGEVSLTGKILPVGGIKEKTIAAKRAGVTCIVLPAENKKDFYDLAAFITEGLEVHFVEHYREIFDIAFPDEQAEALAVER


Key:
[1] = molecular target: T1, hLon (human Lon protease); test: competition
[2] = molecular target: T1, hLon (human Lon protease); test: ITC
[3] = molecular target: T1, hLon (human Lon protease); test: ITC; remark: listed apart in the source
[4] = molecular target: T1, hLon (human Lon protease); test: ITC; remark: listed apart in the source
[5] = molecular target: T1, hLon (human Lon protease); test: ITC; remark: listed apart in the source
[6] = molecular target: T1, hLon (human Lon protease); test: ITC; remark: listed apart in the source
[7] = molecular target: T1, hLon (human Lon protease); test: ITC; remark: listed apart in the source

Binder	binding result [1]	Ka [2]	Ka [3]	Ka [4]	Ka [5]	Kd [6] [µM]	Ka [7]
GTGTTAGTTGGGGGGTGA (structured_DNA) [LSPas18]	binds	–	–	–	–	–	–
AATAATGTGTTAGTTGGGGGGTGA (structured_DNA) [LSPas]	–	3.03 ± 0.83 10^5 M^-1	2.45 ± 0.43 10^5 M^-1	2.6 ± 0.72 10^5 M^-1	2.11 ± 0.11 10^5 M^-1	–	–
TGGGGGGT (structured_DNA) [TG6T]	–	1.36 ± 0.22 10^5 M^-1	1.35 ± 0.89 10^5 M^-1	3.48 ± 0.36 10^5 M^-1	–	7.35	1.24 ± 0.58 10^5 M^-1

— paper PMC2275097
